Results on three molecules are retold here after paper PMC9593262 (iScience, 2022).

The target in assay [1] is T1, Recombinant nucleolin protein (murine, residues 309–644) (mouse, UniProt P09405 309-644). The experiment in a line: plate competition assay read by fluorescence of PE-labelled streptavidin.
For assay [2], the target named is T1, Recombinant nucleolin protein (murine, …). The assay is described as follows: plate binding assay read by fluorescence of PE-labelled streptavidin.
Assay [3] addresses T2, Recombinant mouse NRP-1 protein (mouse, UniProt P97333 22-856).
T2 sequence (looked up): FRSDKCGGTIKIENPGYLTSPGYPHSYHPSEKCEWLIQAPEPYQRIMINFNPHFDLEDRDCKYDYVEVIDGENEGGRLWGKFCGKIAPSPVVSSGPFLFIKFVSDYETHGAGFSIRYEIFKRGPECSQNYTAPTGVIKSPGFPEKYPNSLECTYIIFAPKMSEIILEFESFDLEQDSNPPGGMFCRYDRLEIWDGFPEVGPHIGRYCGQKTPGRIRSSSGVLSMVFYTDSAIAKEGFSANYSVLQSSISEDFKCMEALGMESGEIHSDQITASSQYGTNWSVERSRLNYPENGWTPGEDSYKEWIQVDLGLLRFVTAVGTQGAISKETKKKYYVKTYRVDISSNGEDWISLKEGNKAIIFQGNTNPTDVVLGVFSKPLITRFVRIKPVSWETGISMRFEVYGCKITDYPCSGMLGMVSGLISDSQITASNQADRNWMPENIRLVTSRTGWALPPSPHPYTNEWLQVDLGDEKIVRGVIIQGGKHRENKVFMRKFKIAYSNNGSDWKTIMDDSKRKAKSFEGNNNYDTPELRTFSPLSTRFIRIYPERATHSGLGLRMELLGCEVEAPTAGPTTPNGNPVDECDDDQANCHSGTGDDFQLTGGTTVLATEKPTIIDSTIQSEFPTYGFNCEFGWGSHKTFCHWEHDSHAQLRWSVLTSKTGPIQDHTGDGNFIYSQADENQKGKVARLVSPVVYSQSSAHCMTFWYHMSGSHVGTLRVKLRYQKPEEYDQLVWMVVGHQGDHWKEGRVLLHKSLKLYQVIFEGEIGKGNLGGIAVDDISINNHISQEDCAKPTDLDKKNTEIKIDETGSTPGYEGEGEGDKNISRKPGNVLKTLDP
Described as above.

No end group written: not given here. *: point of attachment. Biotin = O=C1N[C@H]2[C@H](CS[C@H]2CCCCC(=O)*)N1

T1 sequence (P09405 309-644): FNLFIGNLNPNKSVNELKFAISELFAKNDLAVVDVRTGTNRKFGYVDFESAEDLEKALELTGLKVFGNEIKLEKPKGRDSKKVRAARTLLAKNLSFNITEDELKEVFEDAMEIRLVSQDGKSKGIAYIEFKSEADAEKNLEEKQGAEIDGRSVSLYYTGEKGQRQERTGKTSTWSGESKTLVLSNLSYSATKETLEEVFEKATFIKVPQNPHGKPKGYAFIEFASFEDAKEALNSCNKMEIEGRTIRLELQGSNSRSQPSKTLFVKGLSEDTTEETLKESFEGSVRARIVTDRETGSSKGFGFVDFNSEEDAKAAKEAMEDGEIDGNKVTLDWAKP

VSYKAIRVSYKAIRVSYKAIR [Dp1×3 (unlabelled)]: the binding result in assay [1] was “binds”.
As to Biotin-VSYKAIRVSYKAIRVSYKAIR [biotin-labeled Dp1×3], the binding result in assay [2] is given as “binds”.
In the case of Biotin-VSYKAIR [biotin-labeled DC-targeting peptide Dp1], in assay [3], the binding result is “binds”.
